# Measurements as given in patent publication US20220235344A1, “TRYPSIN VARIANTS WITH IMPROVED ENZYMATIC PROPERTIES” (BIOPHARMA TRANSLATIONSINSTITUT DESSAU FORSCHUNGS GMBH, priority 2018, published 2022).
# Values joined by “and” are separate entries in the source; they are usually repeats but may differ in a detail not shown here. Identical values can stand only once.
# T1: H-RAHAK(DNP)-OH (acyl acceptor), acyl donor Bz-PGGYRAHAG-OH (Rattus norvegicus, UniProt P00763, D194K/K66E/Y45H/Y65H)
# T1 construct: made in house; host or cells: Pichia pastoris X-33
# T1 sequence (P00763 24-246 Y45H/Y65H/K66E/D194K): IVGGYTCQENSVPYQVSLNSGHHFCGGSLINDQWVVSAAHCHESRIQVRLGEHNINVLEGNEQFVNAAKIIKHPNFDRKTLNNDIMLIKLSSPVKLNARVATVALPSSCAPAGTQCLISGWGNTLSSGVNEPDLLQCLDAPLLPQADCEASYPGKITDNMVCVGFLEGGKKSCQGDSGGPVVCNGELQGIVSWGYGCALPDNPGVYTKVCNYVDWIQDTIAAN
# T2: Bz-AAYRAHAG-OH (acyl donor) / H-RAHAK(DNP)-OH (acyl acceptor) (Rattus norvegicus, UniProt P00763, D194K/K66E/Y45H/Y65H)
# T2 construct: monomeric enzyme species (about 24 kDa); made in house; host or cells: Pichia pastoris X-33 (pPICZalphaA, secreted)
# T2 sequence (P00763 24-246 Y45H/Y65H/K66E/D194K): T1 sequence (P00763 24-246 Y45H/Y65H/K66E/D194K)
# B1: Trypsiligase II (trypsin variant Y39H/Y59H/K60E/D189K) (protein)
# chain: T1 sequence (P00763 24-246 Y45H/Y65H/K66E/D194K)
# B2: A2C8: Trypsiligase II + H40F, A55A, R96E, K97D, L99F, N143E, E151Y, S190V, Q192A, S214G, G219Q, A221T (protein)
# chain: IVGGYTCQENSVPYQVSLNSGHFFCGGSLINDQWVVSAAHCHESRIQVRLGEHNINVLEGNEQFVNAAKIIKHPNFDEDTFNNDIMLIKLSSPVKLNARVATVALPSSCAPAGTQCLISGWGETLSSGVNYPDLLQCLDAPLLPQADCEASYPGKITDNMVCVGFLEGGKKVCAGDSGGPVVCNGELQGIVGWGYQCTLPDNPGVYTKVCNYVDWIQDTIAAN
# Assays:
# Format in all cases: biochemical
# [1] = tested on: Bz-PGGYRAHAG-OH (acyl donor) / H-RAHAK(DNP)-OH (acyl acceptor); experiment: Maximum product yield of transamidation (Table 7); conditions: Zinc ions (100 μM): no; two equivalents of acyl acceptor and 250 μM acyl donor
# Method: (§1) Model transamidation reactions were performed in a solution containing 15 to 250 μM acyl donor, 2 eq. of the corresponding acyl acceptor, varying concentrations of trypsin variant, 100 mM HEPES/NaOH pH 7.8, ±0.1 mM ZnC12, 100 mM NaCl, 10 mM CaCl2) at 30° C. Acyl donor and acyl acceptor had the same amino acids in P1′-P3′ position, e.g. Bz-[…]+H-RAHAK-OH or Bz-[…]+H-RKKAK-OH. Variations are indicated. The acyl acceptor could be equipped with a 2,4-Dinitrophenyl group (DNP) at the side chain of the terminal lysine, e.g. H-RAHAK(DNP)-OH or H-RKKAK(DNP)-OH. The reactions were started by the addition of enzyme. To record the time course of product formation and/or for kinetic evaluation of the reaction several aliquots of the reaction mixture were quenched with 25% (v/v) acetic acid at distinct time points within up to 4 hours. The composition of the reaction mixture was analyzed by UPCL with method I or II, depending on the absence (method 1) or presence (method II) of a 2,4-dinitrophenyl group within the acyl acceptor (see example 1). Measurements were performed as duplicates and errors were less than 5%.
# [2] = tested on: Bz-PGGYRKHAG-OH / RKHAK-OH (YRKH substrate); experiment: Enzymatic activity and maximum product yield of Trypsiligase II-library variants, YRKH substrate; conditions: for PPmax vs YRAH (%): 100 μM Bz-PGGYR(A/K)HAG-OH, 200 μM R(A/K)HAK-OH, 100 μM ZnCl2, pH 7.8, 30° C.
# Method: as §1
# (§2) On the basis of these investigations the mutated positions of these two variants 2G10 and 1C11 have been combined in a new enzyme library based on trypsin variant Y39H/Y59H/K60E/D189K (Trypsiligase II), so that the variants resulting from this library benefit from both positive effects and are thus further optimized. Accordingly, positions 40, 55, 96, 97, 143, 151, 190, 192, 214, 219 and 221 were randomized in this Trypsiligase II library, while the mutation L99F was fixed because it was present in both Trypsiligase I libraries A and B. Positions 143 and 151 in Trypsiligase I are responsible for zinc complexation and thus convey histidine specificity for the recognition sequence YRH. In Trypsiligase II, this histidine specificity is shifted by positions 39 and 59, resulting in the recognition sequence YRAH. Thus, positions 143 and 151, which are potentially responsible for P2′ position specificity, are available for randomization in the Trypsiligase II library. In addition to the desired effect of increasing the affinity to the substrate/nucleophile, this could also lead to a possible independence of zinc complexation, which would be desirable with regard to the application-oriented modification of recombinant proteins. Using phage display and an ELISA-based screening, the Trypsiligase II variants illustrated in Table 3 and 4 have been identified.
# [3] = molecular target: T1, H-RAHAK(DNP)-OH (acyl acceptor), acyl donor Bz-PGGYRAHAG-OH; experiment: KM value of the nucleophilic peptide (acyl acceptor); conditions: Zinc ions (100 μM): yes; 250 μM Bz-PGGYRAHAG-OH, varying H-RAHAK(DNP)-OH
# Method: (§3) For Trypsiligase II the measurements for KM values of the nucleophilic peptide (acyl acceptor) were carried out in the presence or absence of zinc ions due to its strong zinc ion dependency. In case of variant A2C8 measurements were carried out in the absence of zinc ions.
# (§4) Transamidation reactions with Trypsiligase II and variant A2C8 were performed in a solution containing 250 μM of the acyl donor Bz-[…]-OH, varying concentrations of the acyl acceptor H-RAHAK(DNP)-OH (0-5000 μM for Trypsiligase II in the absence of zinc ions, 0-1500 μM for Trypsiligase II in the presence of zinc ions, 0-1000 μM for variant A2C8), 0.2-1.5 μM trypsin variant, 100 mM HEPES/NaOH pH 7.8, ±0.1 mM ZnCl2, 100 mM NaCl, 10 mM CaCl2 at 30° C. The reaction was started by the addition of enzyme. For kinetic evaluation of the reaction several aliquots of the reaction mixture were quenched with 25% (v/v) acetic acid at distinct time points within 30 minutes. The composition of the reaction mixture was analyzed by UPCL using method II (see example 1). UV absorption of the 2,4-Dinitrophenyl group (DNP), which is present in the acyl acceptor as well as in the aminolysis product, was detected at 360 nm. To determine the KM value of the nucleophilic peptide the initial rates for the aminolysis reaction were plotted against the corresponding acyl acceptor concentration and fitted to the Michaelis Menten equation. Measurements were performed as duplicates and errors were less than 5%.
# [4] = tested on: H-RAHAK(DNP)-OH (acyl acceptor), acyl donor Bz-PGGYRAHAG-OH; experiment: as above; conditions: for Km: Zinc ions: no, 250 μM Bz-PGGYRAHAG-OH, varying H-RAHAK(DNP)-OH
# Method: as §3, §4
# [5] = tested on: Bz-PGGYRAHAG-OH / RAHAK-OH (YRAH substrate); experiment: Enzymatic activity and maximum product yield of Trypsiligase II-library variants, YRAH substrate; conditions: for AS A[YRAH]/AS A + H[YRAH] / YRAH/YRKH, quotient of max. product yield for YRAH subtrate/YRKH substrate: Table 3; for Pmax vs YRAH (%): Table 3, first column group
# Method: as §1, §2
# [6] = molecular target: T2, Bz-AAYRAHAG-OH (acyl donor) / H-RAHAK(DNP)-OH (acyl acceptor); experiment: Zinc dependence of the transamidation reaction, Trypsiligase II
# Method: as §1
# [7] = 100 μM Bz-PGGYR(A/K)HAG-OH, 200 μM R(A/K)HAK-OH, 100 μM ZnCl2, pH 7.8, 30° C.
# [8] = Table 3, group (YRAH), 100 μM ZnCl2
# [9] = R1-YRAH-R2, 250 μM acyl donor, 500 μM acyl acceptor, absence of zinc ions
Molecule,product yield (%) [1] [%],"AS A/H, quotient of aminolysis/hydrolysis activity ([2]; Table 3)",PPmax vs YRAH (%) ([2]; Table 3),"AS[AL] (mkat/moL), specific aminolysis activity ([2]; Table 3, 100 μM ZnCl2) [mkat/moL]","AS[HL] (mkat/moL), specific hydrolysis activity ([2]; Table 3, 100 μM ZnCl2) [mkat/moL]",Km [4] [µM],AS A[YRAH]/AS A + H[YRAH] [5],"YRAH/YRKH, quotient of max. product yield for YRAH subtrate/YRKH substrate [5]","Pmax vs YRAH (%) [5, 7] [%]","AS A/H, quotient of aminolysis/hydrolysis activity ([5]; Table 3, group (YRAH))","AS[AL] (mkat/mol), specific aminolysis activity [5, 8] [mkat/mol]","AS[HL] (mkat/mol), specific hydrolysis activity [5, 8] [mkat/mol]",also measured
B1,4.2,0.0,1.5,0.5,16.3,1630,0.1,6.0,8.9,0.3,2.4,7.8,"AS A/H, quotient of aminolysis/hydrolysis activity ([2]; Table 4): 0.0; AS A[YRAH]/AS A + H[YRAH] ([2]; Table 4): 0.0; YRAH/YRKH, quotient of max. product yield ([2]; Table 4): 0.2; PPmax vs YRAH (%) ([2]; Table 4): 1.5%; AS[AL] (mkat/mol), specific aminolysis activity ([2]; Table 4, 100 μM ZnCl2): 0.5 mkat/mol; AS[HL] (mkat/mol), specific hydrolysis activity ([2]; Table 4, 100 μM ZnCl2): 16.3 mkat/mol; Km [3]: 143 µM and 144 µM; AS A/H, quotient of aminolysis/hydrolysis activity ([5]; Table 4): 0.3; PPmax vs YRAH (%) ([5]; Table 4, 100 μM Bz-PGGYR(A/K)HAG-OH, 200 μM R(A/K)HAK-OH, 100 μM ZnCl2, pH 7.8, 30° C.): 8.9%; AS[AL] (mkat/moL), specific aminolysis activity ([5]; Table 4, 100 μM ZnCl2): 2.4 mkat/moL; AS[HL] (mkat/moL), specific hydrolysis activity ([5]; Table 4, 100 μM ZnCl2): 7.8 mkat/moL; dependence for zinc ions [6]: strong dependence for zinc ions; reduction of the product yield in the absence of zinc ions (factor) [6]: 4; kcat, AL^app + Zn^2+ (mkat/mol) ([6]; R1-YRAH-R2, 250 μM acyl donor, 500 μM H-RAHAK(DNP)-OH, 2 μM trypsin variant, 0.1 mM ZnCl2): 11.19 mkat/mol; product yield + Zn^2+ (%) ([6]; R1-YRAH-R2, 250 μM acyl donor, 500 μM acyl acceptor, 0.1 mM ZnCl2): 18% and 18.1%; kcat, AL^app − Zn^2+ (mkat/mol) [6, 9]: 0.89 mkat/mol; product yield − Zn^2+ (%) [6, 9]: 4% and 4.2%; drop of apparent turnover rate for the aminolysis reaction in the absence of zinc ions (factor) ([6]; YRAH): 12"
B2,59.7,6.9,51.3,8.9,1.3,17.6,1.6,1.0,53.1,10.9,15.8,1.5,improvement of the enzyme affinity for the nucleophilic peptide versus native Trypsiligase II (factor) ([4]; Trypsiligase II in the absence of zinc ions): 92; improvement of the enzyme affinity for the nucleophilic peptide versus native Trypsiligase II (factor) ([4]; Trypsiligase II in the presence of zinc ions): 8
